Experimental data published in the supplement of paper PMC7877785.
± gives the uncertainty stated by the source.

Experiment: self-splicing fitness, log relative to wild type (ln ratio); higher = more splicing; Tetrahymena group I intron in knt gene, E. coli kanamycin selection, DiMSum; sequences stand for … in CUCUCU…GGAGGGAAAAGUUAUCAGGCAUGCACCUGGUAGCUAGUCUUUAAACCAAUAGAUUGCAUCGGUUUAAAAGGCAAGACCGUCAAAUUGCGGGAAAGGGGUCAACAGCCGUUCAGUACCAAGUCUCAGGGGAAACUUUGAGAUGGCCUUGCAAAGGGUAUGGUAAUAAGCUGACGGACAUGGUCCUAACCACGCAGCCAAGUCCUAAGUCAACAGAUCUUCUGUUGAUAUGGAUGCAGUUCACAGACUAAAUGUCGGUCGGGGAAGAUGUAUUCUUCUCAUAAGAUAUAGUCGGACCUCUCCUUAAUGGGAGCUAGCGGAUGAAGUGAUGCAACACUGGAGCCGCUGGGAACUAAUUUGUAUGCGAAAGUAUAUUGAUUAGUUUUGGAGUACUCGUGGUCG
Procedure, shortened: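 Colonies from six replicate transformations of E. coli BL21(DE3) were pooled and amplicon-sequenced on an Illumina HiSeq 2500. The library placed an intron with all eight P1ex-region nucleotides randomised inside the knt kanamycin-resistance gene on pET-22b(+), and cells grew overnight at 37°C or 30°C on LB agar with or without 25 μg/mL kanamycin (plus 100 μg/mL carbenicillin, 50 μM IPTG, 0.2% rhamnose). Fitness is the DiMSum error-weighted combination of wild-type-normalised replicate fold changes, kanamycin versus none.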

| Sequence | self-splicing fitness (ln) (37 °C) | self-splicing fitness (ln) (30 °C) |
| --- | --- | --- |
| CAUUAGCAAUAUUACGGAAC | -0.879 ± 0.24 | – |
| CAUUAGCAAUAUUACGGACU | -1.89 ± 0.23 | -2.75 ± 0.28 |
| CAUUAGCAAUAUUACGGCAA | -3.22 ± 0.47 | -2 ± 0.22 |
| CAUUAGCAAUAUUACGGCUG | 0.0962 ± 0.088 | 0.0732 ± 0.078 |
| CAUUAGCAAUAUUACGGGGA | -1.77 ± 0.26 | -2.73 ± 0.21 |
| CAUUAGCAAUAUUACGGGUC | -1.5 ± 0.23 | -3.51 ± 0.29 |
| CAUUAGCAAUAUUACGGGUG | -1.57 ± 0.14 | -3.18 ± 0.16 |
| CAUUAGCAAUAUUACGGUGG | 0.024 ± 0.093 | -0.719 ± 0.066 |
| CAUUAGCAAUAUUACGUAAC | -2.14 ± 0.25 | -3.01 ± 0.26 |
| CAUUAGCAAUAUUACGUAAU | -1.96 ± 0.21 | -2.73 ± 0.19 |
| CAUUAGCAAUAUUACGUUGC | -2.8 ± 0.19 | -3.96 ± 0.19 |
| CCAAAGCAAUAUUACGAAGA | -2.2 ± 0.22 | -3.61 ± 0.27 |
| CCAAAGCAAUAUUACGAAUC | -2.52 ± 0.34 | -2.82 ± 0.33 |
| CCAAAGCAAUAUUACGACCG | -0.0691 ± 0.14 | -0.022 ± 0.096 |
| CCAAAGCAAUAUUACGAGUU | -2.31 ± 0.16 | -4.72 ± 0.34 |
| CCAAAGCAAUAUUACGAUAC | – | -2.15 ± 0.27 |
| CCAAAGCAAUAUUACGAUAU | -2.79 ± 0.13 | -4.16 ± 0.15 |
| CCAAAGCAAUAUUACGAUCG | -0.183 ± 0.075 | 0.0481 ± 0.058 |
| CCAAAGCAAUAUUACGAUGC | -3.64 ± 0.24 | -3.78 ± 0.19 |
| CCAAAGCAAUAUUACGAUGG | -2.29 ± 0.22 | -4.15 ± 0.22 |
| CCAAAGCAAUAUUACGAUGU | -2.1 ± 0.11 | -2.93 ± 0.1 |
| CCAAAGCAAUAUUACGCCGC | -2.58 ± 0.38 | – |
| CCAAAGCAAUAUUACGCCUG | -0.707 ± 0.07 | -0.536 ± 0.055 |
| CCAAAGCAAUAUUACGCGAU | -2.79 ± 0.28 | -3.16 ± 0.21 |
| CCAAAGCAAUAUUACGCGUA | -3.75 ± 0.32 | -4.41 ± 0.34 |

| Sequence | self-splicing fitness (ln) (37 °C) | self-splicing fitness (ln) (30 °C) |
| --- | --- | --- |
| CCAAAGCAAUAUUACGCGUG | -1.26 ± 0.066 | -1.93 ± 0.067 |
| CCAAAGCAAUAUUACGGUCU | -3.15 ± 0.19 | -3.75 ± 0.16 |
| CCAAAGCAAUAUUACGUACC | -2.19 ± 0.32 | -3.76 ± 0.37 |
| CCAAAGCAAUAUUACGUAUA | -2.3 ± 0.14 | -4.79 ± 0.32 |
| CCAAAGCAAUAUUACGUCAG | -0.149 ± 0.08 | -1.64 ± 0.065 |
| CCAAAGCAAUAUUACGUCAU | -2.87 ± 0.22 | -3.8 ± 0.2 |
| CCAAAGCAAUAUUACGUUGA | -0.401 ± 0.14 | -3.42 ± 0.29 |
| CCAAAGCAAUAUUACGUUGU | -2.44 ± 0.12 | -3.77 ± 0.12 |
| CCACAGCAAUAUUACGAACG | -0.267 ± 0.075 | -0.247 ± 0.07 |
| CCACAGCAAUAUUACGACAA | -1.91 ± 0.17 | -3.09 ± 0.22 |
| CCACAGCAAUAUUACGAGUC | -2.7 ± 0.22 | -3.55 ± 0.24 |
| CCACAGCAAUAUUACGAUGA | -1.77 ± 0.12 | -1.9 ± 0.11 |
| CCACAGCAAUAUUACGCAGG | -2.35 ± 0.23 | -3.97 ± 0.27 |
| CCACAGCAAUAUUACGCCUC | -2.58 ± 0.35 | -2.9 ± 0.26 |
| CCACAGCAAUAUUACGCGAC | -2.76 ± 0.26 | -2.75 ± 0.17 |
| CCACAGCAAUAUUACGCUGA | -3.16 ± 0.24 | -2.51 ± 0.12 |
| CCACAGCAAUAUUACGGCCA | -2.75 ± 0.27 | -3.79 ± 0.29 |
| CCACAGCAAUAUUACGGCGA | -1.63 ± 0.13 | -3.36 ± 0.18 |
| CCACAGCAAUAUUACGGCUA | -2.89 ± 0.15 | -3.88 ± 0.16 |
| CCACAGCAAUAUUACGGGCU | -3.07 ± 0.18 | -4.83 ± 0.27 |
| CCACAGCAAUAUUACGGGGG | -2.4 ± 0.16 | -2.71 ± 0.093 |
| CCACAGCAAUAUUACGUCAC | -2.86 ± 0.22 | -3.34 ± 0.15 |
| CCACAGCAAUAUUACGUCGC | -3.36 ± 0.22 | -3.63 ± 0.17 |
| CCACAGCAAUAUUACGUGAA | -1.01 ± 0.082 | -2.7 ± 0.072 |
| CCACAGCAAUAUUACGUGAU | -1.98 ± 0.12 | -3.51 ± 0.18 |

| Sequence | self-splicing fitness (ln) (37 °C) | self-splicing fitness (ln) (30 °C) |
| --- | --- | --- |
| CCACAGCAAUAUUACGUUGC | -2.73 ± 0.14 | -3.44 ± 0.13 |
| CCACAGCAAUAUUACGUUGU | -2.83 ± 0.13 | -2.37 ± 0.076 |
| CCAGAGCAAUAUUACGAAAU | -2.93 ± 0.25 | -3.47 ± 0.23 |
| CCAGAGCAAUAUUACGACAA | -2.03 ± 0.45 | – |
| CCAGAGCAAUAUUACGACAC | – | -1.29 ± 0.22 |
| CCAGAGCAAUAUUACGACAG | -0.408 ± 0.15 | -0.807 ± 0.094 |
| CCAGAGCAAUAUUACGACGU | -3.28 ± 0.47 | -3.74 ± 0.27 |
| CCAGAGCAAUAUUACGAGAU | -3.15 ± 0.16 | -4.57 ± 0.2 |
| CCAGAGCAAUAUUACGAUAG | -1 ± 0.12 | -1.42 ± 0.082 |
| CCAGAGCAAUAUUACGCAUU | -2.22 ± 0.2 | -3.53 ± 0.33 |
| CCAGAGCAAUAUUACGCUAC | -1.72 ± 0.33 | – |
| CCAGAGCAAUAUUACGGAAU | -2.52 ± 0.17 | -3.42 ± 0.26 |
| CCAGAGCAAUAUUACGGAGG | -1.87 ± 0.24 | -2.49 ± 0.18 |
| CCAGAGCAAUAUUACGGAUA | -1.91 ± 0.16 | -3.52 ± 0.22 |
| CCAGAGCAAUAUUACGGGGC | -2.8 ± 0.21 | -3.91 ± 0.24 |
| CCAGAGCAAUAUUACGGGGG | -2.44 ± 0.31 | -3.72 ± 0.46 |
| CCAGAGCAAUAUUACGGUGG | -3.31 ± 0.24 | -3.31 ± 0.17 |
| CCAGAGCAAUAUUACGUAUA | -2.35 ± 0.29 | – |
| CCAGAGCAAUAUUACGUCUA | -2.23 ± 0.24 | -2.37 ± 0.19 |
| CCAGAGCAAUAUUACGUGCG | -0.888 ± 0.097 | -1.59 ± 0.077 |
| CCAGAGCAAUAUUACGUGUG | -1.54 ± 0.097 | -1.69 ± 0.091 |
| CCAGAGCAAUAUUACGUUCU | -1.84 ± 0.31 | -3.71 ± 0.31 |
| CCAGAGCAAUAUUACGUUGC | -2.11 ± 0.18 | -4.54 ± 0.37 |
| CCAUAGCAAUAUUACGAAGG | -2.87 ± 0.34 | -3.26 ± 0.22 |
| CCAUAGCAAUAUUACGACUG | -0.0816 ± 0.087 | -0.667 ± 0.071 |

| Sequence | self-splicing fitness (ln) (37 °C) | self-splicing fitness (ln) (30 °C) |
| --- | --- | --- |
| CCAUAGCAAUAUUACGAGGA | -2.05 ± 0.25 | -2.97 ± 0.25 |
| CCAUAGCAAUAUUACGAGUA | -2.06 ± 0.19 | -3.41 ± 0.32 |
| CCAUAGCAAUAUUACGAUCA | -3.23 ± 0.29 | -2.94 ± 0.18 |
| CCAUAGCAAUAUUACGAUUU | -2.37 ± 0.23 | -3.31 ± 0.2 |
| CCAUAGCAAUAUUACGCAUA | -2.72 ± 0.29 | -3.76 ± 0.26 |
| CCAUAGCAAUAUUACGCCGC | – | -1.47 ± 0.21 |
| CCAUAGCAAUAUUACGCGCG | -0.0324 ± 0.1 | -0.974 ± 0.091 |
| CCAUAGCAAUAUUACGCGGU | -2.5 ± 0.26 | -3.9 ± 0.23 |
| CCAUAGCAAUAUUACGCGUG | -0.856 ± 0.085 | -2.23 ± 0.095 |
| CCAUAGCAAUAUUACGCUCG | -0.407 ± 0.13 | -1.69 ± 0.1 |
| CCAUAGCAAUAUUACGCUGU | -2.54 ± 0.29 | -4.23 ± 0.39 |
| CCAUAGCAAUAUUACGGAGA | -3.35 ± 0.29 | -4.12 ± 0.28 |
| CCAUAGCAAUAUUACGGAUA | -1.81 ± 0.21 | -2.94 ± 0.21 |
| CCAUAGCAAUAUUACGGCAU | -1.78 ± 0.2 | -4.02 ± 0.24 |
| CCAUAGCAAUAUUACGGGAG | -2.89 ± 0.25 | -2.96 ± 0.15 |
| CCAUAGCAAUAUUACGGUCU | -2.53 ± 0.28 | -3.96 ± 0.33 |
| CCAUAGCAAUAUUACGUACU | -2.3 ± 0.18 | -4.18 ± 0.29 |
| CCAUAGCAAUAUUACGUAGA | -2.53 ± 0.16 | -3.86 ± 0.17 |
| CCAUAGCAAUAUUACGUCAC | – | -3.48 ± 0.28 |
| CCAUAGCAAUAUUACGUGAG | 0.00486 ± 0.066 | -0.355 ± 0.045 |
| CCAUAGCAAUAUUACGUGCG | -0.772 ± 0.15 | -2.49 ± 0.15 |
| CCAUAGCAAUAUUACGUUAU | -3.31 ± 0.21 | -3.34 ± 0.14 |
| CCAUAGCAAUAUUACGUUUA | -2.68 ± 0.25 | -3.25 ± 0.23 |
